Experimental data reported in the supplement of paper PMC9170038.

Tested on: K4 kissing-loop RNA reporter
Test: apparent KD of K4 kissing-loop reporter; higher = weaker reporter binding
Conditions: Eterna round: R107
Protocol: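 RNA-MaP round R107: designed RNA switches with theophylline, tryptophan, arginine or FMN aptamers are transcribed on-chip within common flanks. They are titrated with a labelled K4 kissing-loop RNA reporter in RNA-MaP buffer (100 mM Tris pH 7.5, 80 mM KCl, 4 mM MgCl2), without ligand or with the indicated ligand. Median apparent KD per design.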

[1] = input ligand: theophylline 20 uM
[2] = input ligand: tryptophan 2.4 mM
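Note: bound reporter read as fluorescence of individual clusters on recovered sequencing chips by microscopy, with normalized cluster intensities fitted with a binding model.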

Sequence | apparent KD of K4 kissing-loop reporter (input ligand: FMN 200 uM) [nM] | apparent KD of K4 kissing-loop reporter (input ligand: arginine 13.2 mM) [nM] | apparent KD of K4 kissing-loop reporter (input ligand: none) [nM] | apparent KD of K4 kissing-loop reporter [1] [nM] | apparent KD of K4 kissing-loop reporter [2] [nM]
CUCGAGUGAUGUUCGAUUAUGUAUACAGAUACCAGUGAAUUUUAACACCCUUGGCAGCUGGUAGAAUCAUUUUAAUUUUAACUAG [JR_SSTheophyA_Sub021] | 201 | 256 | 221 | 268 | 162
AAGGCAGUUCGAGGAUAUCACAUACACUCCUUGAAUCAAGGAGUGAUGUUCCUUGAAGUGUAUGCAUGAGAAGGCGAAUUGCCUU [FMN B SS t5] | 113 | 103 | 109 | 103 | 101
CGUAGUUGGGCGGCCGCCACUUGAAAAGCUUUGCCAAAGGCAGAGCUCUAGAGUGAUGUUCUGGCAAGGACCGGGUCCAACUACA [#03 K4 Tryptophan B Same State] | 869 | 719 | 872 | 590 | 358
AAAAUAAACCAGUGAUGUUGGUGUCCAGAUACCAGCGAUAAUAAUCGCCCUUGGCAGCUGCGGACGUACAAAAUAAGUACGUCCU [MatMod 11 - Jieux - Same State - Theophylline A] | 482 | 351 | 513 | 294 | 408
CUUGAUGGAAACAUCGAGUAGAUUACUGAUACCAGUAUCGAUAGAUACCCUUGGCAGCAGAAUCAGUGAUCACGAGUGAUGUUCG [Ex Theophylline A K4 8] | 525 | 441 | 529 | 451 | 484
CUGGGUUGACGAAAAGUCAACAAAAGAGAAGGAGCGCACGAAAGUGCAGGUAGGUCGCUCAAUCCAGUGAUGUUGGGUCGUCCAG [#OpenEnded 11 #K4Late] | 279 | 192 | 284 | 285 | 222
AAUGGAGGCUGAAGGAGCGCCGCCAGUGAUGUUGGGAGUUAGAUACCAGUGAUGUUGGGCCGGCAGGUAGGUCGCGGUUUUUAUU [Exclusion Arginine B Gf 16] | 186 | 78.4 | 136 | 153 | 126
UGAUACCAGACUGAUACCAGCGAGUGAUGUUUGCUGAUCUAAAGCAGUCAAAGACUGCCUUGCCCUUGGCAGCAGUCUGGUAUCU [TheoBX 26 #SwitchBubble #StaticStem] | 294 | 235 | 275 | 351 | 264
UGUGUUUACCUGACUCAGUGAUGUUGAGAAGGAGCGUGCAAACGCACAGGUAGGUCGCUCAACCUAAAUUCAGGUGAGCACUAAA | 568 | 380 | 453 | 423 | 406
UGCAGUGAUGUUGCUAUUUUUCUUGAUUAACGAGGACCGGUACGGCCGCCACUCGAUUUCUCUCUAAUCCAGUAUGUUGUUUAGU [JR_ExcTryptoA_Sub001] | 111 | 144 | 121 | 140 | 90.4
GGUUUAUAGGAGGAUACCAGUACAAAUAAAGUACAUUAAUAGUAGAGUGAUGUUCUAAAGUACCCUUGGCAGCUUAGAUUAAGUU [ExTheophylB.G] | 92.6 | 181 | 111 | 188 | 76.4
GCCGUAGAUGGAAGGAGCGUGGUGGACUCGUGAAGUGAUGUUUCAAGUCGUUAUGCCCAACCACAGGUAGGUCGCCAUCUACGGC | 277 | 204 | 270 | 231 | 251
UAGAUGUUGUAAGAUAUUGAUAGUCGGGAAGGAGCGCUCACAAUAGCAGGUAGGUCGCCCGACAGUGUUAGGAGUGAUGUUCCUU [7.)] | 92.9 | 119 | 97.9 | 121 | 83.5
GGUAUCCAGUACCAUUGCGUUAAAACAGAAGGAGCGAGUAUGGACUCAGGUAGGUCGCUGUUUAUAGUCGAGUGAUGUUCGAAUC [Same State Arginine A GF 15] | 237 | 280 | 281 | 316 | 222
UUCGAAAGUCGAAGGAGCGCUGGCGGUCAUAGACUAUAUCUGUAGUGAUGUUACAGAUUCCAGCAGGUAGGUCGCGACAGAGACA [Arg B SS t18b] | 124 | 88.4 | 107 | 89.8 | 108
GGGCGCGGCGCGGCCGCCACUGGGCCUGGGCGCUCGCUGAGUGAUGUUCGUCGGCGGCUGGGUCGUAGGACCGGGUGCCGGCUGG [BDazzled - #4 SS Tryptophan B] | 735 | 533 | 1320 | 627 | 269

Sequence | apparent KD of K4 kissing-loop reporter (input ligand: FMN 200 uM) [nM] | apparent KD of K4 kissing-loop reporter (input ligand: arginine 13.2 mM) [nM] | apparent KD of K4 kissing-loop reporter (input ligand: none) [nM] | apparent KD of K4 kissing-loop reporter [1] [nM] | apparent KD of K4 kissing-loop reporter [2] [nM]
GCCGUACGCAUGGAUACCAGCAAUUAUGCUCGUAUCCUAGUGAUGUUAGUGGCGAAUAUUUGCCCUUGGCAGCCAUGCGUACGGC | 1080 | 841 | 1160 | 691 | 936
AAGAGAUCGAGAAGGAGCGAGAAAGCUAGUACAUAUGUACUAGCAAAGCAGUGAUGUUGCACUCAGGUAGGUCGCUCGAUCUCAA [AK1 SS Arginine B] | 395 | 299 | 432 | 335 | 314
GGUACAGCGGAAGGAUAUCUGUCAUGGACGAUCGUAGCUUGAGCUCCCUGAGUGAUGUUUAGGAUGAGAGAAGGUCCACUCGUAU [theeternabot_exclusion_KL_FMN_B_2] | 673 | 358 | 591 | 626 | 450
GGAGGAGAAUAUGAUACCAGCAGAGAGAGAGAGGAAGUAUAGUGAUGUUAUAUGAGAGAAUGCCCUUGGCAGCAUAAGAAGAAGG [SSTheophylB.A] | 150 | 105 | 136 | 123 | 105
AUCUAUGAGCGAGGAUAUGCAUGACGCGAGUGAUGUUCGCGAUGUGGGCGUGAUUAGUAAUAUGAAGCAGAAGGCGCACUCAUGA [Exclusion - FMW B / A] | 216 | 111 | 153 | 116 | 129
UAAUUGCAGUGAUGUUGCAAAUGUCCUGACUAGGAUAUCAGGAAACUGAGAAGGAGUCCCUUCUAUUGCAACAAGAAGGAGGAUA [KL-SSFMN-A14] | 312 | 300 | 347 | 338 | 287
GCGUUCAUGGCAGGAUAUAGGUAAAGGAGUGAUGUUCCUUAUGUUGCAUUUACUUAAUCCAACUCCCUAGAAGGGCCAUGAACGC | 123 | 140 | 151 | 139 | 146
AGAUACUUUAUCGCUAGAGGCAUUGCAGAUACCAGCCUAUCUAGAGGCCCUUGGCAGCUGGAGUGAUGUUUCGGCUUAGCUAAAG [theeternabot_exclusion_KL_Theo_A_32] | 402 | 317 | 323 | 348 | 393
UACUAUAUUCUGUCGUUUUUAUUAGUUUGUCAGGAUAUCGUUUAUUCGAGAAGGGACACUGUCUAGUGAUGUUAGACAUUUCUUU [#04 K4 FMN A Exclusion] | 68.3 | 90.7 | 88.5 | 87 | 75.5
AUUCAGAUCUGAAGGAGCGCGUUGACAUAUUGCUUCAUUGAGCAGUGAUGUUGCUCAGUAACGCAGGUAGGUCGCAGAUCUGGCC [Arg B Ex t7a] | 113 | 110 | 99 | 92.3 | 104
UACUAUAGUGAUGUUAUAGAUAAAACAGAUACCAGUGUUACAUAACACCCUUGGCAGCUGAAAAGGGAAAGUAUAAAUGUGUAUU [AstrosSSTHe-A#1newdesignED] | 156 | 127 | 133 | 125 | 129
UGUCAUUGGUCGGCCGCCACUUCGGUCAAAGACCAUAAAGAGUGAUGUUCUUAAGACGAAAGUCGAAGGACCGGGACCGAUGACU [TrypBS 11 #SwitchBubble #K4Middle] | 1110 | 744 | 1200 | 782 | 273
AGGUCCGAGCCCGGAAGGGCUCGGACCUGUUAGGAUAUGACGUUAUUCAGAAGGGAUGGGUGGAGUGAUGUUCCACCCGAGAGGG [#2 Same State - FMN A Attempt #17 (HarryS)] | 106 | 103 | 100 | 108 | 98.3
GGUCCGGGCUCGGCCGCCACUCCCUCGUACCGCAAGGUAUGAUACCGAGUGAUGUUCGGUUGGAGGAGGACCGGGAGCCCGGACC [#2 Exclusion - Tryptophan B Attempt #9 (HarryS)] | 112 | 110 | 132 | 124 | 100
CGCAAGCAGCCAGUGAUGUUGGCCGCCUUGCGAGGACCGGUACGGCCGCCACUCGAAGGCGGCUACUGGUAAACCGCCUAACGGA [Onzaenla] | 93.3 | 83.6 | 92.9 | 85.4 | 96.4
UUCAGUGAUGAUGAACACUGUUGUAUAAACUAGGAUAUGCUGAUAAGCAGAAGGAGUGAUGUUCCGUUCAUCAUCAGAAUUAAAU [KL-XFMN-A4] | 619 | 378 | 371 | 407 | 255
